Assay results taken from the DeepSol protein solubility set.

test: soluble on expression in E. coli; label from the status in PepcDB or PDB records

| Sequence | soluble on expression in E. coli |
| --- | --- |
| MGSDKIHHHHHHMADLTDLERTRHLVDLLAPARKTRIVDIGANPINDNPYAPLLDIGAAEVWGFEPQTEAFDKLVARNAPDEHYVNAAVGKGGTGTLNICASSGTSSLLTPNVDAMDAVTGWHKYFEVVGTVDVETKRLDNIAEIPEFDLLKIDVQGAEREVFTYGKKRLSTALAVITEVAAIPLYEDQPLLGDQMVLLGKLGFDLHKFLFWKDVVLRSKYLNGMRRRRMRTQLVDGDAVFVRDLLHLKDMETERLKHLTLLADAVFESFDMVLYCLEILEDRGVLTEAAIRTYVARMPYQRDPQPRLVESVGQ | not soluble |
| MAKIVILFDFDRTLIDGDSDNWVVTEMGLTEIFHQLRFTLPWNRLMDRMMMELQSQGRSIDDIKSCLKKMPIDSHIIEAIKSAKSSGCDLKIVSDANQFFIEKILEHHDLVDCFSEIYTNPTSLDDNGNLRILPYHSDALPPHSCNLCPSNLCKGLVMDHLRASSSNDQIPRRFIYLGDGGGDFCPTLKLRECDFVMPRTNYPLWKKISDNPLLIKAEVKEWSSAEEQQRILLQLVSTITKEEDS | soluble |
| GPGSMVLSSPVITLRRMVHFSSTPTSLHSRSSTSPLDALVDEVSSFIPATFTSIPQISRQLPPELMERVCDPVCGGLRSLLSRYAERFESKMIGQVHVVRSRLRQRESAAPCRRANAGAEVGYSFAVPSSPSGNAAAAASKSNSVDVQAVFTELQQLFPSYLVPVKALWTTVPEAEEQQVRARVLDALRSPQHRAWLTFHEHPAHCASHSTSADEAELTHVLEHGYVQLRLNPAAGDDRAAAPMPQSPNTRMAGHEVQPYEWYRVARVLPTTATELLFSGELQEQATLLLPPGRDVWHVLLSAPALFELRYAAPTTVDSGQQARVPTLSAEGSSLAPVCVKYDATPPPSLCASVYVRFRLEERFVPPDMAGAREESILRELETLTAERAASACGLSSRQRRRKRKLQRQLAYLRNPTPYFDERVLAQHLFDLLPLRDGVHQSALLGSLPQPAVQAFPQNVTELLQARNDLFQLSDVRHGILVRRADAPKVAQRSIESVTGEEILLHIFSSYSLRSDPQEGTTISRSLPRLPRLVRERLFTMQDIIAEVLLLYPDKVEVLADRSPSISSLSLSSSPHTSEADERALRELRTVRGRRDFLVPFRFVGEWQAKLTEKYTKQQTKDAVKSMRARQRSESSHRRPARY | not soluble |
| MNDKQYQEIASLLERLSRNNAMSIYGDWIKNSFSKELIASISVLTHNDLKILDSLFKQDLSISDVVSRTGLSQGGVSRRVNMMSEKGIIHKYQNDKNKKTVFLKLNPIGQELFDFHRKLHDHIKEIFFQKTQRFNEEQIRVVISFLEAILT | soluble |
| SLETQQEGMDISSSLRKLGAQSKLIQTYIDQSLMSPNVQLEEVTALNTNQFLIKQDMKEWSSELYPQLILLNSKSKGFVTKFNSYYPTLKSFVDNKEDREGFSDRLEVLQEMAMTNQENTQRQINELTDLKLQLDKKLKDFDTNVATAQGILSTDGTGKIDQLKNEILNTKKAIQNDLQQIALIPGALNEQGFAIFKEVYSLSKEIIEPAAQAGVAAYNKGKEINNSILEAEKKAVQEATEQGKTALEIESAKKAAREAIEKSKQGEIAAAAAAKTQEYDLMKVIDTEKIKKTFGVFAEVNKLTAEQRAYLDDLEKQNQKIYDLTTKLSIADLQKSMLLLTQNDLHTFANQIDVELDLLKRYKEDLNLIKNSITKLSTNVDTTSEQSQKDTLRQLKNVISYLEEQVYKF | soluble |
| SNAMANFEDFLTLDLRIGTVTHAEEFKEARVPAIRLEIDFGELGMKQSSAQITKRYNPEDLIGQQIVAVVNFPPKRVAGFKSEVLVLGGVPEAGDVVLLQPNMELPNGTKIS | soluble |
| MSLRIADKTVTRAILERHGFTFKKSFGQNFLTDTNILQKIVDTAEIDKGVNVIEIGPGIGALTEFLAENAAEVMAFEIDDRLIPILADTLARFDNVQVVNQDILKADLQTQIQAFKNPDLPIKVVANLPYYITTPILMHLIESKIPFAEFVVMIQKEVADRISAMPNTKAYGSLSIAVQYYMTAKVSFIVPRTVFVPAPNVDSAILKMVRRDQPVVSVQDEDFFFRVSKVAFVHRRKTLWNNLTSHFGKSEDTKAKLEKALEIAKIKPSIRGEALSIPDFASLADALKEVGIEGHHHHHH | soluble |
| MKVDSLHNLSYKEEFEGDMKRSTAAYKKVSEDASIGSTYIADISEVGSQISGEPVQRIKIPEHRQILKRSLIKPVIMAGGNGKRLWPLASKDKPKQFKKILSDLTLLQQTLNRNKFLGQPTIITSKKYESITKEQATEIDVEIALITEPLQKNTAVCAIITALSATALGFDIVVLLPSNHHIADDINYLNTINKALHYVNECGICTIFL | not soluble |
| MGTAAERWERAQMFFDAKDYAVAARILDGLVDEVPEQTGPRLLLARSYYHSAQLGRAEAELRILVERDPVEHYARLMLGRTLQRQGRDDEADSQLRIASALAGLEHHHHHH | not soluble |
| MALHHHHHHGVTGELRRRADGIWQRILAHPFVAELYAGTLPMEKFKYYLLQDYNYLVNFAKALSLAASRAPSVDLMKTALELAYGTVTGEMANYEALLKEVGLSLRDAAEAEPNRVNVSYMAYLKSTCALEGFYQCMAALLPCFWSYAEIAERHGGKLRENPVHVYKKWASVYLSPEYRGLVERLRAVLDSSGLSAEELWPYFKEASLYELEFWQAAYEGH | soluble |
| MDQPISVTLSSTTDPLWRSCHEYDNEMVITVNGRRIFPTLEYTVTGLDTFKLYSMCMHLDLVDDKKLRFTGGQWAESVSTEKKDPPRKVWHHNGSQTGKDWMLRNVSFDQIRITNRKSKEDGNASYVHLLTQHRYIPVLTIYEGDQLVHTARIPHSQFISVTAYHKGELNTLKTNNNPYSTGSRKDRRRERQSPVYSEGTSSEKSISPPPAKKIKDMAPALPDYSVISKPNLLQSLIFPMIAEQPSTSQSPPAPPVFPFNPDLQMQMLQPFMLPQFGFPCGFPSINPFMNPFLTPFTSMFPTPTVSPDGEGVKLEPEAFVEV | not soluble |
| MNLIPQDVLKKYLLPIRDLATSTFVFKKKYTRECQRSTPRNFINQFLLLFLKVPFSLLQELKLSKMLEIDKDKKVLIGCLAGSFLFYHTARQIYSYMSVKPREWVPVGVVKSLHIFPIKSCKSVDVFAFKCTKLGPVMGDLEDRAFMLVEESTGKFITARQKPKLVHVENYMTDGMLEVTVPGQPKLSVDLRKVLQNKRTIRATLFKNLKQDGYDCGDEVAKLLSDYIEEPNYRLIFYKEGLYTERTVIPDDQWWNNPVPKRNDDSGFTDLAPFHIATDASLKVLNEKLDNKITMRYFRPSIYIEGCAAWDEDKWAEIRIGDAHLECFAPCTRCVLTTVDPVKGEMSKEMQPLKKLREFRLVPDGKMRKVHMESPVFGVYAGLVNEGYIHTGQTVYVRYKPTAF | not soluble |
| MMEDNKMTESEMKFRDTTIRNFFDKEDRLKSIPGQKKKKLVLLEHLISKLNAENQYTEKEINTFIKQYHDDFCTIRREFIVQGFMNREDNMYCINGREVWTKWEELK | not soluble |
| KQKKMQAMIVTSRPDRVIRMIHHKLHRGVTIINDAEGTYNHEHKAILVTIITRAEFNDFKYIMKKTDKNAFVSVADNVNIIGRFVEED | not soluble |
| MGSDKIHHHHHHMKLLLTRPEGKNAAMASALDALAIPYLVEPLLSVEAAAVTQAQLDELSRADILIFISTSAVSFATPWLKDQWPKATYYAVGDATADALALQGITAERSPADSQATEGLLTLPSLEQVSGKQIVIVRGKGGREAMADGLRLRGANVSYLEVYQRACPPLDAPASVSRWQSFGIDTIVVTSGEVLENLINLVPKDSFAWLRDCHIIVPSARVETQARKKGLRRVTNAGAANQAAVLDALGM | not soluble |
| MFALVLAAGRSRRFDGDKRKALLPCGRTLLTACLETAGKVFTETGVVLREDDEVQTLGIPSKVTIIRCKHADLGMGHSLAAGIAAALNSSADAVAILLADMPWIEPQTLRDLARLADPQRIALPMHEGQRGHPVIIGRRFWPRLLALEGDQGAKALITNNPAFCDVMNCDDPGVLRDADTRSALAIACRQHLTAGRDLEHHHHHH | not soluble |
| TRNFEWIVGGNITRSRDKIKSLGGEEQIVLSYDNGVQMVNRVGESPYQFYGYQADGVYSTQAEADAANLSNRTGRRYNAGDVRFVDQNGDNRIDDKDRILLGSAAPSYFGGFYTQLKYKGFALSAEFSYSKDNIAYNAVRQQLEAVSTTNNQSIAAVNRWTVEGQKTDMPKATWKDPVGNSYFSSRWMEDASYLRMKNVTLSYTFSKTLWNFFRSGTIYVTGENLLTFTDYLGMDPEFSYSYAENMQGFDNAKLMQPKTVKMGVNLKF | not soluble |
| MTSTFDRVATIIAETCDIPRETITPESHAIDDLGIDSLDFLDIAFAIDKAFGIKLPLEKWTQEVNDGKATTEQYFVLKNLAARIDELVAAKGALEHHHHHH | soluble |
| MSLRAPRRSNADGLSENVLKAILEPAAAYMAETQKMKEEGNENGGSENTNIDQRNQLLQQASQRGSIGSFLDTTSLSTCSKRSLHSSRLTLSDSKEFYKTVGCRWIRSVRHGDVSTVKKMLEENSELVNYAPTYGPLALHLAAARSDRSIILLLLAKGAEVDSRDAAGYTCLQLAIRRGNQSLAHFLILQGANIELIDPDGRGIIDYDGWSGEDQRSAEKHFYGKIILRPKAHSFVGSPSSISMKSSKSTRTMRPSSTPNDSMISEYESSNLKRNEKQRSSWMSFFKSHTIFGSNSKS | not soluble |
| MAHHHHHHMKKACKLASECLKLCLENSKEGITTDIIDNMAYDFYIKNNAYPAGLNFHSFPKSICASPNEVVCHGIPNLRKLQRGDIITYDCTVFLDGVFGDCAGTVGIGEISERHKKLMDVSKECLYKAISICRDGQLFSEIGRIITEHANKNGFNVIKDFCGHFIGTHMHMYPLIEHHYPNSHNNHRMKKGQIFTIEPILSEGSINIYTWKDKWTVCTNDNSFCSQWEHTILVLDNYAEILT | not soluble |
| MFKRIGLISIALSLNTISFTSEACSALVFNKNKPATVAVNLDWKYREGAFVIHPRNAMMVSSVDYHSMHPLIWKSQYGSVIFHGGNRFKAGPSADGMNEKGLTASILMLDSSIYPSNSELPALKTTEWVQYILDNFQTVQEVIDDSSNYQLVADTYRGITMNVHLMVSDAEGKSAVFEYLDGKLVIHTQDNLTTPVLTNTDYKLSLALLEEYQDHGGSKALPGGYDSKSRFVRAAHYLKKLPSFIAKEEHIAYAFNGLNVVTQAPGTSSPTQLSMVFDIPTKTIYFRSINEAALRVIPMDSIDFDYLYQPIALNVYQHLSGDVTDKFQPMIG | not soluble |
| MHAVKPFPLCNLPLISLREVIDYLPTFDIFVLLHTSQKTKKLISSNIRDFVARQEHYKKQDISVRVVAERSYMEVIAISPKIRSTRFKRNDINQALEAAKYLVDHFKCDTDSVWLRITHRKEDETRQIITSVKEINLNITNLQFRHERISSDLFNWLLENCVQDVHIWVLEPQSITVSNWNVFEKVRKYNFQGINFSSHQANMLLKSLKSNNNFVQFRANDIENSLDLSVVFEDTGATAKMDTYRSVVFRPGLTVLKEYKPSKSRFVTENNNGGEMSICITEHAFSFQSN | not soluble |
| MALYAVDKPLHLTSHDVVEEARRRLSTRRVGHTGTLDPLATGLLLLVTNESTKLVPFLSGEDKEYIAWVSFGATTPTLDAEGPISEEAPARFDRKDLEAALPRFLEVREQVPPLYSAIKVGGKRAYEAAREGKPLALGPRPVRYLEVELLAFDPEPIPHPIAPSARGWRLAERRGRPVRLPRPLGAYPTAVVRLVVGPGTYVRAFARDLGEMLGTKAFLSGLVRTRVGRVGLERAVALSDLSPEKAIPELDVLPFPVVELSHTEARRVLEGMPLPIPAMGYVTLVDSKRRLLAIAEGDGFKLKIRRVFAKEA | soluble |
| MRKTRNQAGARQALKQLGMRNTSRSAAPRRGCVLSCFFEHLSLYDHSFFPHHSSQMFLFLKDSRFRKKMASQQDASPPTGYNMGHRHSLTIETNPLHLLPSNMRRFSQADTARHPAAPLLSKLAARQQIPEAVAEKKDDEKPENK | not soluble |
